Where a chain is given by its changes, count along the chain named.
T1: human GDF15 recombinant protein (ACRO, GD5-H5149) (human, UniProt Q99988 197-308)
T1 sequence (looked up): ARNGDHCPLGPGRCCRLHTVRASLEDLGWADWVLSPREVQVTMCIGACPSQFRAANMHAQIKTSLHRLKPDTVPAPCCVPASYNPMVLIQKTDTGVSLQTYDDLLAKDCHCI

T2: cynomolgus monkey GDF15 recombinant protein (Kactus, GDF-CM215) (cynomolgus monkey, UniProt G7PWZ3 197-308, limits assumed)
T2 construct: also called cynoGDF-15.hFc; cynoGDF15; not shown: human Fc (hFc)
T2 sequence (looked up): T1 sequence (looked up) with H6R, R21H, A54E, T63M, S64N, I112V

T3: mouse GDF15 recombinant protein (Kactus, GDF-MM215) (mouse, UniProt Q9Z0J7 189-303, limits assumed)
T3 construct: also called mGDF-15.hFc; murine GDF15; not shown: human Fc (hFc)
T3 sequence (looked up): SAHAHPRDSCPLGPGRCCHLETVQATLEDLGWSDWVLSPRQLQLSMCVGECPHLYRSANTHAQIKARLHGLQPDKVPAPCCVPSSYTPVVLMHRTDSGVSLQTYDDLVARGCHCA

B1: G2-CH8-LP1-hIgG1 (LALAGA, -K) (antibody, V domains shown)
VH: QVTLKESGPGILQPSQTLSLTCSFSGFSLSTYGIGVGWIRQPSGKGLEWLAHIWWNDNKYYNTALKSRLTISKDTSNNQVFLKIASVDTADTATYYCARLAYDYVDSWGQGTTLTVSS
VL: DIVMTQAAFSNPVTLGTSASISCRSSKSLLHSNAITYLYWYLQKPGQSPQLLIYQMSNLVSGVPDRFSSSGSGTDFTLRISRVEAEDVGVYYCAQNLELPPTFGAGTKLELKR
B2: G2-CH8-LP3-hIgG1 (LALAGA, -K) (antibody, V domains shown)
VH: B1 VH
VL: B1 VL with N33E, A34G
B3: G2-CH8-LP2-hIgG1 (LALAGA, -K) (antibody, V domains shown)
VH: B1 VH
VL: B1 VL with A34Q
B4: G2-CH17 (antibody, human IgG1, kappa, V domains shown)
VH: QVTLKESGPGILQPSQTLSLTCSFSGFSLNTSGMGVSWIRQPSGKGLEWLAHIYWDDDKRYNPSLKSRLTISKDTSRNQVFLKITGVDTADTAAYYCARTGWDFFDIWGQGTTLTVSS
VL: DIVMTQSQKFMSTSVGDRVSVTCKASQNVGSNVAWYQQKPGQSPKALIYSASYRYSGVPDRFTGSGSGTDFTLTITNVQSEDLAEYFCQQYKSYPLTFGAGTKLELKR
notes: chimeric: murine variable regions on human IgG1 constant region mutant (LALAGA, -K)
B5: G2-CH5-HP2-hIgG1 (LALAGA, -K) (antibody, V domains shown)
VH: EVLLQQSGPELVKPGASVKIACKASGYTLTDYNLNWVKQSHGKSLEWIGDLNPYNQGIIYNQKFKGKATLTVDKSSSTAYMELRSLTSEDIAVYYCAREGRGGAWFDSWGQGTLVTVSA
VL: DIQMTQSSSSFSVSLGDRVTITCKASEDIYHRLAWYQQKPGNAPRLLISGATSLETGIPSRFSGSGSGKDYALSITSLQTEDVGTYYCQQYWSPPFTFGSGTKLEIKR

Key:
[1] = target: T1, human GDF15 recombinant protein (ACRO, …); assay: cell-based or functional assay
[2] = target: T1, human GDF15 recombinant protein (ACRO, …); assay: ELISA, coated hGDF-15.His
[3] = target: T2, cynomolgus monkey GDF15 recombinant …; assay: ELISA, coated cynoGDF-15.hFc
[4] = target: T3, mouse GDF15 recombinant protein …; assay: ELISA, coated mGDF-15.hFc 2 ug/mL

Row | Binder | IC50, reporter gene cell strain (mGFRAL) [1] | EC50 [2] | EC50 [3] | binding result [4]
1 | B1 | 116 ng/mL | – | – | –
2 | B2 | 81 ng/mL | – | – | –
3 | B3 | 100 ng/mL | – | – | –
4 | B4 | – | 3.93 pM | 0.13 nM | no binding
5 | B5 | 142 ng/mL | – | – | –

— patent EP4810515A1 (Shanghai Haiju Biological Technology Co., Ltd., dated 2026)
